# Test results taken from patent publication US12637513B2, “Method of treating cancer by administering an inhibitor of erythropoietin receptor activity comprising either erythropoietin receptor or erythropoietin protein” (ImmunEdge, Inc., priority 2022, dated 2026).
# T1: hetero-EPOR (Homo sapiens, UniProt P19235+P32927)
# T1 sequence (P19235 25-508): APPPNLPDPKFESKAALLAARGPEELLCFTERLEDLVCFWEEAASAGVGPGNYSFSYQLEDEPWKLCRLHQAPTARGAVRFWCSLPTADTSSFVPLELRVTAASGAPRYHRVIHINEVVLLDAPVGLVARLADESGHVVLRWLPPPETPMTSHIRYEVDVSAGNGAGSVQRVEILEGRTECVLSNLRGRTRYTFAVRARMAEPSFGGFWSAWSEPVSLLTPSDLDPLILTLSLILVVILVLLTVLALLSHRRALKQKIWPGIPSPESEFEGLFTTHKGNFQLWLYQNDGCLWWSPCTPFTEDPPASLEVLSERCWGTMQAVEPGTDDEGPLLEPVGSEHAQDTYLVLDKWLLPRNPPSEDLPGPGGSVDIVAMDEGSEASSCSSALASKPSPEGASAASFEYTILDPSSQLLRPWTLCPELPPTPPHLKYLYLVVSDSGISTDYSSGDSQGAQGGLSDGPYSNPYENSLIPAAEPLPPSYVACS
# T1 sequence (P32927 17-897): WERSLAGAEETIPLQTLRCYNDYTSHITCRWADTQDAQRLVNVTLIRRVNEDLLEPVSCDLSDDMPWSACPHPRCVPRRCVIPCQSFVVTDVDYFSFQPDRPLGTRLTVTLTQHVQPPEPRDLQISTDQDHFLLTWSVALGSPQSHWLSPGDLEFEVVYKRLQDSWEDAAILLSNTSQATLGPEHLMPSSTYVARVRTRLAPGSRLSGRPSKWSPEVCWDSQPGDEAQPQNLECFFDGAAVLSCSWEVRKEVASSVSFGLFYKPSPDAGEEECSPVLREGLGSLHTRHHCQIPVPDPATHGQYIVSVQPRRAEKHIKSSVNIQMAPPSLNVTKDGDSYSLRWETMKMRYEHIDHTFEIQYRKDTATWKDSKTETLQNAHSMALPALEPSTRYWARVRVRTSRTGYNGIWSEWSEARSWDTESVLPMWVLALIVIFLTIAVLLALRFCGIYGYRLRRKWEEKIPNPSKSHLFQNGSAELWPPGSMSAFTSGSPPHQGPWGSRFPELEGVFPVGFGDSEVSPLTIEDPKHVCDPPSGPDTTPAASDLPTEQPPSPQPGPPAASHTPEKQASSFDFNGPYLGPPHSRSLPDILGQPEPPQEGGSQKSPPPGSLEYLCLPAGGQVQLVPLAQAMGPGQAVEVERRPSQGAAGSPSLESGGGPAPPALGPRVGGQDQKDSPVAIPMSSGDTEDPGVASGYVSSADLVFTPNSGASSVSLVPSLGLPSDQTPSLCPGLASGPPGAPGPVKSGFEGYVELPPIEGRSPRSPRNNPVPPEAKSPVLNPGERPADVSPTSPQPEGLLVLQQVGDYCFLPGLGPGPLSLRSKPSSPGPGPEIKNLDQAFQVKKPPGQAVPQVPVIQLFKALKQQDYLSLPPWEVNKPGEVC
# T2: EPO/EPOR interaction (EPOR-CD131-Fc and EPO) (Homo sapiens, UniProt P19235+P32927)
# T2 construct: Chimeric Fc fusion proteins of the extracellular domains of human EPOR and human CD131; purchased Sino Biological CT010-H02H
# T2 sequence (P19235 25-250 limits assumed): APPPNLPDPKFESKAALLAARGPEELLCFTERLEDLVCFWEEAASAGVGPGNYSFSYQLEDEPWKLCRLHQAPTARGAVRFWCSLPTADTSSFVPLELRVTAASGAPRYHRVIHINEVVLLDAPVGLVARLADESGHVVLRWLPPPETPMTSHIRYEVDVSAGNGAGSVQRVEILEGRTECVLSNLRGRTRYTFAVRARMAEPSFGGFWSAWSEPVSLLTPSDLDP
# T2 sequence (P32927 17-443 limits assumed): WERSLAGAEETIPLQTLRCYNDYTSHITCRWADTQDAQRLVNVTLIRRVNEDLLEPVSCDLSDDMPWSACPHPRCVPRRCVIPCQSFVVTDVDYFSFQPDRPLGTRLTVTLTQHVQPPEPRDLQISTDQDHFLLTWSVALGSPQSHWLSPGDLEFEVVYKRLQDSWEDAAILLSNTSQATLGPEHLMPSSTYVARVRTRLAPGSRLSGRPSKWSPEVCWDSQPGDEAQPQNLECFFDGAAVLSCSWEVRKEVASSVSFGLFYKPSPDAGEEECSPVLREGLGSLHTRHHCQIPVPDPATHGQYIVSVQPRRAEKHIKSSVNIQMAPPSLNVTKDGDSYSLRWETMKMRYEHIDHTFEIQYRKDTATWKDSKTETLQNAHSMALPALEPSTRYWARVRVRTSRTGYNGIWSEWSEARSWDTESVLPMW
# T3: 293T/EPOR cells (Homo sapiens, UniProt P19235)
# T3 construct: expressed in transfected cells; host or cells: 293T cells expressing hEPOR
# T3 sequence (P19235 25-508): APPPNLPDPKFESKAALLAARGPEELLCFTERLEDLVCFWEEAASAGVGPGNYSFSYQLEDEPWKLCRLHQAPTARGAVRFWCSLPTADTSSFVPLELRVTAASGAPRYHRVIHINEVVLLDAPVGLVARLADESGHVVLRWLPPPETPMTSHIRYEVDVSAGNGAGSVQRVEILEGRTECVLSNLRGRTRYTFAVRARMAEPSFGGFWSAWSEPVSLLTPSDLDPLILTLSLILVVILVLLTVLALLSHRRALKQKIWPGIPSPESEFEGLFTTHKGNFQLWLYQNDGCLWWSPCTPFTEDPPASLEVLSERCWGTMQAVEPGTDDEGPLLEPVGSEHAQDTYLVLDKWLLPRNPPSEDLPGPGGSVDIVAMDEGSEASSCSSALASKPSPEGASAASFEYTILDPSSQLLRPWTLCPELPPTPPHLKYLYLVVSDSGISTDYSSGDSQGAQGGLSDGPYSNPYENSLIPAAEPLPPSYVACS
# T4: 293T/EPOR/CD131 cells (Homo sapiens, UniProt P19235)
# T4 construct: expressed in transfected cells; host or cells: 293T cells, lentiviral transduction
# T4 sequence (P19235 25-508): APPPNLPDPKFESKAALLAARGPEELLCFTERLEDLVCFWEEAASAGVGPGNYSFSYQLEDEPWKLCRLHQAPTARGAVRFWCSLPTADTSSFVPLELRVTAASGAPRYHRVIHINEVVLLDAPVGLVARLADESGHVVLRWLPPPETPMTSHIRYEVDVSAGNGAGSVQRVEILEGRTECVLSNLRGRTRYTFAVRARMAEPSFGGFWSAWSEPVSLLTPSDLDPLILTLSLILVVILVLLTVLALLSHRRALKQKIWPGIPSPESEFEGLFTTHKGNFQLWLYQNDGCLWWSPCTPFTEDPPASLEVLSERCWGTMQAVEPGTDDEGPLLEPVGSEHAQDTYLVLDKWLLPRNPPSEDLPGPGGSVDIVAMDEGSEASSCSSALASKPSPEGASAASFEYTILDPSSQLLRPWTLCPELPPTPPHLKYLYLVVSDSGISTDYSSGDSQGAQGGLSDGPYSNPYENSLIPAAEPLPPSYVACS
# T5: 293T/CD131 cells (Homo sapiens, UniProt P32927)
# T5 construct: expressed in transfected cells; host or cells: 293T cells, lentiviral transduction
# T5 sequence (P32927 17-897): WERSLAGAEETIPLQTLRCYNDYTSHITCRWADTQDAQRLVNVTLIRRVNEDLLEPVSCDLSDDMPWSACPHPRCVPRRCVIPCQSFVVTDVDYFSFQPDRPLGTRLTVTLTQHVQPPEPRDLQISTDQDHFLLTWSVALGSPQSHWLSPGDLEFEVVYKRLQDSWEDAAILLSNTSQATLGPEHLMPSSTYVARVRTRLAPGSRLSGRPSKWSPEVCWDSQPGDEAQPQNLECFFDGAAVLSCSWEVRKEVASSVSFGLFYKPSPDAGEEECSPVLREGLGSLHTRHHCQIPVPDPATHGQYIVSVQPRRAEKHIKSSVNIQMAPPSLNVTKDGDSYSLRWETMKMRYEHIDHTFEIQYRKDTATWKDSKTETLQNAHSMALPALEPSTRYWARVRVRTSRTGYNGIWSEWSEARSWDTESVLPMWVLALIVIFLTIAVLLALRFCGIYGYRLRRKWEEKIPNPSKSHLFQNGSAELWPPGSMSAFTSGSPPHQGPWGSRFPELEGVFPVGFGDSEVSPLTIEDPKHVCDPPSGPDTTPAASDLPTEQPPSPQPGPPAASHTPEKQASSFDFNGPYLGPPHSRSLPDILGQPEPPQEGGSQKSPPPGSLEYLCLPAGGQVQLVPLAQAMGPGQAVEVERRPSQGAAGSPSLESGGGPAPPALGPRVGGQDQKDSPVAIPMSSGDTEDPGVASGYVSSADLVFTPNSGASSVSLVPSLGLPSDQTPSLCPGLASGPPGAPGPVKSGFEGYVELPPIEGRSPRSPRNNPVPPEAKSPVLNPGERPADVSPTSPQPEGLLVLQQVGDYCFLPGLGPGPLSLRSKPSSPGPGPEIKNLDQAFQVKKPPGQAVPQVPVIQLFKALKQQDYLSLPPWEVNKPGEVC
# T6: EPOR (UT-7 cells) (Homo sapiens, UniProt P19235)
# T6 construct: endogenous in cells; host or cells: UT-7 human leukemia cells
# T6 sequence (P19235 25-508): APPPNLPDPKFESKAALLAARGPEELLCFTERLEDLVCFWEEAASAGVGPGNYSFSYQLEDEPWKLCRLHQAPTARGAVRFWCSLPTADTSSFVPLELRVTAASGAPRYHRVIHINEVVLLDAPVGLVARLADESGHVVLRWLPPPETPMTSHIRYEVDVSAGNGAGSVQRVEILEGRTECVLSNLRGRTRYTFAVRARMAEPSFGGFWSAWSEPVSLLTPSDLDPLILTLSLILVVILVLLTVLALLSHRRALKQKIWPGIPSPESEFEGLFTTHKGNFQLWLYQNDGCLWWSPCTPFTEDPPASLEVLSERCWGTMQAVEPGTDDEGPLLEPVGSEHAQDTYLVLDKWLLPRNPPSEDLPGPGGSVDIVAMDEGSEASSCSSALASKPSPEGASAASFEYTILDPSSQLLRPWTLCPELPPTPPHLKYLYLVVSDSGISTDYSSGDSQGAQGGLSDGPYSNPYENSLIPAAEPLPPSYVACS
# Columns and labels:
# [1] = target: T1, hetero-EPOR; conditions: cited from earlier work
# [2] = target: Glucosidase; conditions: target Glucosidase; cited from earlier work
# [3] = system: Hypoxia-Inducible Factor (HIF); conditions: target cell empty; cited from earlier work
# [4] = system: PHD1-3; conditions: target PHD1-3; cited from earlier work
# [5] = target: T2, EPO/EPOR interaction (EPOR-CD131-Fc and EPO); experiment: Octet blocking of the EPO/EPOR interaction by hybridoma supernatants; assay type: binding; conditions: EPO 10 nM
# [6] = target: T3, 293T/EPOR cells; experiment: Staining of 293T/EPOR cells with purified antibodies (flow cytometry); assay type: binding
# Experimental: (§1) The purified antibodies were used to stain the human leukemia UT-7 cells, 293T/EPOR, 293T/CD131, and 293T/EPOR/CD131 cells to confirm antigen binding. The UT-7 cells were maintained in Roswell Park Memorial Institute (RPMI) with 10% Fetal Bovine Serum (FBS) and 5 ng/ml of recombinant human GM-CSF (Peprotech®, Cat #300-03). The 293T cells expressing hEPOR, hCD131, or both were maintained in Dulbecco's Modified Eagle Medium (DMEM) with 10% FBS. 1×10^6 cells/ml were incubated with purified hybridoma clones M2 and M41 at a 3-fold dilution series starting from 20 μg/ml for 30 minutes at 4° C. After washing, the cells were incubated with PE labeled secondary antibody and subjected to flowcytometric analysis. […] The binding profiles of the 293T/EPOR/CD131 cells are similar except the peak MFIs around 1500, half of that of the 293T/EPOR cells (FIG. 29B).
# [7] = target: T4, 293T/EPOR/CD131 cells; experiment: Staining of 293T/EPOR/CD131 cells with purified antibodies; assay type: binding
# Experimental: as §1
# [8] = target: T5, 293T/CD131 cells; experiment: Staining of 293T/CD131 cells with purified antibodies; assay type: binding
# Experimental: as §1
# [9] = target: T6, EPOR (UT-7 cells); experiment: Flow-based phosphorylated Stat5 assay, blocking by anti-EPOR antibodies; assay type: cell-based; conditions: 20 μg/ml antibody; 0.1 μg/ml recombinant human EPO
# Experimental: EPOR activation leads to phosphorylation of Stat5. A flow-based assay on phosphorylated Stat5 was set up to test the blocking activities of anti-EPOR antibodies. The UT-7 cells were cultured without GM-CSF for overnight before the EPO stimulation. 3×10^6 cells/ml were incubated with 20 μg/ml of anti-EPOR for 15 minutes before stimulation with 0.1 μg/ml of recombinant human EPO (Peprotech®, Cat #100-64) for 10 minutes at 37° C. The cells were fixed immediately with fixation buffer (Cytofix™ buffer; BD Biosciences, Cat #554655) and permeabilized with methanol. After washing, cells were stained with PE labeled anti-Stat5 (BD Biosciences, Cat #612567) and subjected to flow cytometry analysis.
molecule,measurement,setting,value
QEQLERALNSS,activity for the hetero-EPOR,[1],activates the hetero-EPOR
O=c1cc(-c2ccc(O)cc2)oc2c([C@@H]3O[C@H](CO)[C@@H](O)[C@H](O)[C@H]3O)c(O)cc(O)c12 [Vitexin],IC50,[2],48 nM
CN1CCN(C(=O)COc2ccc(C34CC5CC(CC(C5)C3)C4)cc2)CC1 [IDF-11774],IC50,[3],3650 nM
O=C(O)CNC(=O)C1=C(O)CCN(Cc2ccc(Oc3ccc(Cl)cc3)nc2)C1=O [TP0463518],IC50,[4],5.3 to 63 nM
"EPORab - M41: hybridoma antibody clone, VH/VK in Table 10 (antibody, V domains shown) VH: QVQLVESGGGLVQPGRSLRLSCAASGFTFDDYAIHWVRQAPGKGLEWVSGISYNSENIGYADSVKGRFTISRDNAKNSLYLQMNSLRSEDTALYYCAKDMFLTWFSSFDYWGQGTLVTVSS VL: ETKLTQSPGTLSLSPGERTTLSCRASQSISNNYLAWYQQKPGQAPRLLIYRASTRATGIPDRFSGSGSGTDFTLTIRRLEPEDFAVYYCQRYGRSPLTFGGGTKVEIK",blocking of the EPO/EPOR interaction,[5],partial blocking
same,binding to 293T/EPOR cells,[6]; 0.74 μg/ml purified antibody,lost most of the binding
same,binding to 293T/EPOR cells,[6]; 20 μg/ml purified antibody,robust binding activities
same,peak MFI,[7],around 1500
same,staining of 293T/CD131 cells,[8],did not stain
same,blocking of Stat5 phosphorylation,[9],partial blocking
